Experimental findings from US20220177875 are described below.

In data set [1] the target is T1, T3 DNA ligase (Enterobacteria phage T3?) (UniProt P07717).
T1 sequence: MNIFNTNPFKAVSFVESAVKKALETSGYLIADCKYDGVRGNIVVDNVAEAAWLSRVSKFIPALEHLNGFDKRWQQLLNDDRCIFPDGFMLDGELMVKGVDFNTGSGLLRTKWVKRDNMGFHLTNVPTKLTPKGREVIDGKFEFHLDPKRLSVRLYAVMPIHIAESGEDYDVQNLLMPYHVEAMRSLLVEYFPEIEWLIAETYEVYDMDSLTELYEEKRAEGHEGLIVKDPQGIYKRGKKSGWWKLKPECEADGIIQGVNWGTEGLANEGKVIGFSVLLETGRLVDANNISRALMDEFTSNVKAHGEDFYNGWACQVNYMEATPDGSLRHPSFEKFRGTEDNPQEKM
As to conditions: T4 ligase buffer, 25 C 1 h.

In data set [2] the target is T2, T4 DNA ligase (Enterobacteria phage T4?) (UniProt P00970).
T2 sequence: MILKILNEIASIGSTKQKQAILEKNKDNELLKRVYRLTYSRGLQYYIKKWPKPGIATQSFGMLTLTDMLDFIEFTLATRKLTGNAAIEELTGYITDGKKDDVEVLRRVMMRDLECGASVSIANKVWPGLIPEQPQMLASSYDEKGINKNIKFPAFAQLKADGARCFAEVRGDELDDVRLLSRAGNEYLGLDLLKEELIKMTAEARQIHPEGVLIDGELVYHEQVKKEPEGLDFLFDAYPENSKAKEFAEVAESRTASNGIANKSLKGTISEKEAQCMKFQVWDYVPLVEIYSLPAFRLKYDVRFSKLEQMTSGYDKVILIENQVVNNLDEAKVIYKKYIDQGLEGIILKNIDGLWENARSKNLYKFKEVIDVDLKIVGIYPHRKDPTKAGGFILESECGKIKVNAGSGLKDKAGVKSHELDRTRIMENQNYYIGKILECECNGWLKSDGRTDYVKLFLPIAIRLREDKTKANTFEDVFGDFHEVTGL

Data set [3] relates to T3, Human DNA ligase 3 (hLig3 beta) (Homo sapiens), P49916-4.
T3 sequence: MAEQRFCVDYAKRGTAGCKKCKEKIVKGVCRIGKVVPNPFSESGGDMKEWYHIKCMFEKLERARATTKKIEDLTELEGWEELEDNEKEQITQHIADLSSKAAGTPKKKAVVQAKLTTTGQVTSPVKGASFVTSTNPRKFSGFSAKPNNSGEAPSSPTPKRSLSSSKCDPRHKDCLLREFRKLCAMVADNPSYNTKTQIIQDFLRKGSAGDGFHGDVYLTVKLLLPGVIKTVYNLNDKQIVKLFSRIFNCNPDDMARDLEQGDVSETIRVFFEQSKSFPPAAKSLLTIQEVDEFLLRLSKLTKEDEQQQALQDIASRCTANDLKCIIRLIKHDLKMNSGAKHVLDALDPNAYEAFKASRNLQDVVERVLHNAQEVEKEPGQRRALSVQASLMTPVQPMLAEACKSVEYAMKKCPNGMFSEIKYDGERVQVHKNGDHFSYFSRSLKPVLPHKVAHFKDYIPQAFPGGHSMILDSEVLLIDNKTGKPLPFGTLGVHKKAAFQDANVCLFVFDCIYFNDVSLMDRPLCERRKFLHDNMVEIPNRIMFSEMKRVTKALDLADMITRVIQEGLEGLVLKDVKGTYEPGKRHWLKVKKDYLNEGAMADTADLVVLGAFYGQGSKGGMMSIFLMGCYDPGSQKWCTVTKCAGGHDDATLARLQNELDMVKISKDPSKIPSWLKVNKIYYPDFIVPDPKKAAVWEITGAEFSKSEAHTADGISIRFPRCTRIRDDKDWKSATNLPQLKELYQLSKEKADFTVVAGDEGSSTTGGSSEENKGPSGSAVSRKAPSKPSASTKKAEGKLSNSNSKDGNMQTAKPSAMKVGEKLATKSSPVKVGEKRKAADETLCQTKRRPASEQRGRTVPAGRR

In data set [4] the target is T4, T7 DNA ligase (Enterobacteria phage T7?) (UniProt P00969).
T4 sequence: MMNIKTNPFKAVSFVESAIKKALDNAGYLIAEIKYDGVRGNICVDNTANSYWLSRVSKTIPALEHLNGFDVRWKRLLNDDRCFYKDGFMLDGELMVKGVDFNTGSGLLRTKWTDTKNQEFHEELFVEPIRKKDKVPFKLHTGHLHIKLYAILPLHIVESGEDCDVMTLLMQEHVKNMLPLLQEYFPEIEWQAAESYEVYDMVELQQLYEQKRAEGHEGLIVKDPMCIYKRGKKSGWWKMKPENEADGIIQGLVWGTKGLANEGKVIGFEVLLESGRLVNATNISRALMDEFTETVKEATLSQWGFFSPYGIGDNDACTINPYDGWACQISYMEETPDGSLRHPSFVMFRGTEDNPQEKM

The target in data set [5] is T5, PBCV-1 DNA ligase (Paramecium bursaria Chlorella virus 1?) (UniProt O41026).
T5 sequence: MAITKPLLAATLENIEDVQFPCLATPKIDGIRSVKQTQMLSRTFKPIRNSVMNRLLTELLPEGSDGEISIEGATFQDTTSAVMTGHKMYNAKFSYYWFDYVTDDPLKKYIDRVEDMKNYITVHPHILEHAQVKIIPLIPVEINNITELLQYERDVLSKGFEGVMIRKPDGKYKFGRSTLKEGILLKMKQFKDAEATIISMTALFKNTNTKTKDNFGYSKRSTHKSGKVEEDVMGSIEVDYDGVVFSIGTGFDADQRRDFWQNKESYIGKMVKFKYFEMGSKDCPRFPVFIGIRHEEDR
As to conditions: T4 ligase buffer, 25 C 1 h; library yield 50%.

Read-outs that look alike come from different tables or passages of the source.

For the substance “NNNN [randomized four-base 5' overhang hairpin library]”, the activity (% ligation fidelity) in data set [1] amounted to 59.2; in data set [2] (SMRT sequencing, T4 ligase buffer, 10 mM MgCl2, 1 mM ATP, 25 C 1 h) it was 72.4; in data set [2] (with 6% PEG 6000) it was 66.9; in data set [3] (T4 ligase buffer, 25 C 1 h, text p210 prints 56%) it was 44; in data set [3] (with 6% PEG 6000), 49.7; in data set [4] (T4 ligase buffer, 25 C 1 h, library yield 20%), 88.8. For the same substance, the activity (% ligation fidelity) in data set [4] (with 6% PEG 6000) was 77.9; in data set [5], 77.2.
